{"source": "patent US20210340232A1", "about": "“MONOCLONAL ANTIBODIES AGAINST HUMAN DICKKOPF3 AND USES THEREOF” (Board of Regents, The University of Texas System, priority 2018, published 2021)", "molecules": {"B1": {"name": "JM6-6-1: monoclonal antibody against human DKK3; heavy chain variable SEQ ID NO: 19, light chain variable SEQ ID NO: 20 (antibody, V domains shown)", "VH": "EVKLVESGGGLVKPGGSLKLSCAASGFTFTIEYMAWIRQTPEKRLEWVASISSGGDDIYYADNVKGRFTISRDNAKNTLYLQMSSLKSEDTAIYYCSRSLSDWGQGTTLTVSSAKTTPPSDYPLA", "VL": "MTQTPLSLPVSLGDQASISCRSSQSILHSNGHTYLEWYLQKPGQSPKLLIYKVSNRFSGVPDRFSGSGSGTDFTLKISRVEAEDLGVYYCFQGSHVPFTFGSGTKLEIERADAAQ"}}, "key": {"[1]": {"tested_on": "Pdx1-Cre GEMM model of PDAC", "assay": "Survival in Pdx1-Cre GEMM model of PDAC", "format": "in vivo, mouse", "details": "5 mg/kg i.p. q5d", "protocol": "FIGS. 12A-D. DKK3 expression in mouse PSCs and effects of treatment with DKKC mAb on survival. (FIG. 12A) Western blot analysis of recombinant human and mouse DKK3 under denaturing and non-denaturing conditions using JM6-6-1 mAb. (FIG. 12B) Expression of murine DKK3 in murine PSCs (MPSC) or 3T3 cells was determined by RT-PCR. 18S was used as loading control. (FIG. 12C) Proliferation of MPSCs treated with DKK3 mAb was measured at 7 days by MTS assay. ***p<0.001 vs. PBS. (FIG. 12D) Pdx1-Cre; Kras LSL-G12D;Trp53fl/+ model of PDAC was treated with DKK3 mAb JM6-6-1 or control mAb JM4-74 (5 mg/kg i.p. q5d). Kaplan-Meier survival curves are shown (log rank test). At 0% survival, the right line is JM6-6-1, the middle lines is PBS, and the left line is Control Ab.\nTwo GEMMs of PDAC that differ in the pancreas-specific promoter to target oncogenic Kras expression (Hingorani et al., 2005; Hingorani et al., 2003) were used in the experiments to evaluate the effect of DKK3 neutralizing mAb (Pdx1-Cre; Kras^LSL-G12D; Trp53^R172H/+ and P48-Cre; Kras^LSL-G12D; Trp53^fl/fl). To evaluate the effects of genetic ablation of DKK3 on pancreatic cancer development, DKK3-null mice were crossed to P48-Cre; Kras^LSL-G12D;Trp53^R172H or P48-Cre; Kras^LSL-G12D; Trp53^fl/fl mice (Hingorani et al., 2005; Hingorani et al., 2003), and the progeny were monitored until they were moribund. […]"}, "[2]": {"tested_on": "BxPC3 + HPSC orthotopic tumors", "assay": "Orthotopic co-injection BxPC3 + HPSC nude mouse model of PDAC", "format": "in vivo", "details": "5 mg/kg i.p. once every 5 days, vs PBS or control mAb", "protocol": "HPSCs and BxPC3 cells were treated with DKK3 mAb clones JM6-6-1 and JM8-12-1 or isotype control mAb or PBS. (FIGS. 5A-B) HPSC apoptosis and migration as measured by FACS and Transwell migration assay at 48 hours. (FIG. 5C) BxPC3 migration in response to rhDKK3 10 μg/ml as measured by Transwell migration assay at 48 hours. (FIG. 5D) BxPC3 resistance to gemcitabine 100 μM as measured by MTS proliferation assay at 6 days. HPSC-CM, pancreatic stellate cell conditioned media, 10 μg/ml. The orthotopic co-injection BxPC3+ HPSC model of PDAC was used to test the efficacy of DKK3 mAb clones JM6-6-1 or JM8-12-1 (5 mg/kg i.p. once every 5 days). (FIG. 5E) Overall tumor progression was measured every 3-4 days by IVIS imaging. (FIG. 5F) Metastatic tumors in the peritoneal cavity after removal of the primary pancreatic tumor are shown by IVIS imaging. (FIG. 5G) Kaplan Meier survival curve showing mice treated with DKK3 mAb clone JM8-12 (right-most line), control mAb (middle line), or PBS (left-most line). (FIG. 5H) KPC mice (P48-Cre; Kras LSL-G12D;Trp53fl/fl) with either wild type DKK3 (solid lines) or deficient in DKK3 (“DKK3-KO,” dashed lines) were treated with DKK3 mAb JM6-6-1 (5 mg/kg i.p. once every 5 days), PBS or control mAb. Kaplan Meier survival curve is shown with hazard ratios (Log-rank test). *p<0.05, **p<0.01, ***p<0.001, ****p<0.0001 vs. control Ab.\nAn orthotopic nude mouse model of PDAC using BxPC3 cancer cells labeled with firefly luciferase (BxPC3-FL) co-injected with HPSCs has been previously described (Hwang et al., 2008). Mice received intrapancreatic injections of BxPC3-FL (1×10^6 per mouse) with HPSC-shControl or HPSC-shDKK3 in a tumor-to-stroma ratio of 1:0 or 1:3 in 50-μL of HBSS and tumor growth was monitored using IVIS imaging (Hwang et al., 2008). In addition, a syngeneic immunocompetent DKK3 null model was used, provided by Dr. C. Niehrs (Barrantes Idel et al., 2006), that was injected with murine PDAC cells (termed “KPC cells”) isolated from tumors arising in a GEMM of PDAC (Pdx1-Cre; Kras^LSL-G12D;Trp53^R172H/+) (Hingorani et al., 2005; Hingorani et al., 2003) and labeled with luciferase.\nThe efficacy of DKK3 mAb was tested in vivo using the previously described orthotopic co-implantation nude mouse model of PDAC with human PSCs mixed with luciferase-labeled BxPC3 cancer cells (1:3 tumor:PSC ratio). Mice were treated with either phosphate-buffered saline (PBS), isotype control mAb, or DKK3 mAb (clone JM6-6-1; 5 mg/kg i.p. once every 5 days) and tumor growth was followed with IVIS imaging. […] Tumors in the PBS and control mAb groups grew rapidly from day 22 onward, with an 8-fold increase in the luciferase signal."}}, "data": [{"molecule": "B1", "values": [{"measurement": "effect on survival", "setting": "[1]", "value": "equally effective"}, {"measurement": "tumor growth by IVIS imaging", "setting": "[2]; day 22 until day 33", "value": "significant inhibition in tumor growth"}, {"measurement": "lower volume of metastatic disease in peritoneal cavity by luciferase signal", "setting": "[2]", "value": 6.5, "unit": "fold"}]}]}
